According to article PMC5640987 (Nature, 2017):

Assays:
cryo-EM structure = target: the molecule itself; experiment: cryo-EM structure
Tor1 = Tor1 (budding yeast (endogenous), UniProt P35169 1-2470); experiment: cryo-EM structure
Tor1, sequence (P35169 whole entry): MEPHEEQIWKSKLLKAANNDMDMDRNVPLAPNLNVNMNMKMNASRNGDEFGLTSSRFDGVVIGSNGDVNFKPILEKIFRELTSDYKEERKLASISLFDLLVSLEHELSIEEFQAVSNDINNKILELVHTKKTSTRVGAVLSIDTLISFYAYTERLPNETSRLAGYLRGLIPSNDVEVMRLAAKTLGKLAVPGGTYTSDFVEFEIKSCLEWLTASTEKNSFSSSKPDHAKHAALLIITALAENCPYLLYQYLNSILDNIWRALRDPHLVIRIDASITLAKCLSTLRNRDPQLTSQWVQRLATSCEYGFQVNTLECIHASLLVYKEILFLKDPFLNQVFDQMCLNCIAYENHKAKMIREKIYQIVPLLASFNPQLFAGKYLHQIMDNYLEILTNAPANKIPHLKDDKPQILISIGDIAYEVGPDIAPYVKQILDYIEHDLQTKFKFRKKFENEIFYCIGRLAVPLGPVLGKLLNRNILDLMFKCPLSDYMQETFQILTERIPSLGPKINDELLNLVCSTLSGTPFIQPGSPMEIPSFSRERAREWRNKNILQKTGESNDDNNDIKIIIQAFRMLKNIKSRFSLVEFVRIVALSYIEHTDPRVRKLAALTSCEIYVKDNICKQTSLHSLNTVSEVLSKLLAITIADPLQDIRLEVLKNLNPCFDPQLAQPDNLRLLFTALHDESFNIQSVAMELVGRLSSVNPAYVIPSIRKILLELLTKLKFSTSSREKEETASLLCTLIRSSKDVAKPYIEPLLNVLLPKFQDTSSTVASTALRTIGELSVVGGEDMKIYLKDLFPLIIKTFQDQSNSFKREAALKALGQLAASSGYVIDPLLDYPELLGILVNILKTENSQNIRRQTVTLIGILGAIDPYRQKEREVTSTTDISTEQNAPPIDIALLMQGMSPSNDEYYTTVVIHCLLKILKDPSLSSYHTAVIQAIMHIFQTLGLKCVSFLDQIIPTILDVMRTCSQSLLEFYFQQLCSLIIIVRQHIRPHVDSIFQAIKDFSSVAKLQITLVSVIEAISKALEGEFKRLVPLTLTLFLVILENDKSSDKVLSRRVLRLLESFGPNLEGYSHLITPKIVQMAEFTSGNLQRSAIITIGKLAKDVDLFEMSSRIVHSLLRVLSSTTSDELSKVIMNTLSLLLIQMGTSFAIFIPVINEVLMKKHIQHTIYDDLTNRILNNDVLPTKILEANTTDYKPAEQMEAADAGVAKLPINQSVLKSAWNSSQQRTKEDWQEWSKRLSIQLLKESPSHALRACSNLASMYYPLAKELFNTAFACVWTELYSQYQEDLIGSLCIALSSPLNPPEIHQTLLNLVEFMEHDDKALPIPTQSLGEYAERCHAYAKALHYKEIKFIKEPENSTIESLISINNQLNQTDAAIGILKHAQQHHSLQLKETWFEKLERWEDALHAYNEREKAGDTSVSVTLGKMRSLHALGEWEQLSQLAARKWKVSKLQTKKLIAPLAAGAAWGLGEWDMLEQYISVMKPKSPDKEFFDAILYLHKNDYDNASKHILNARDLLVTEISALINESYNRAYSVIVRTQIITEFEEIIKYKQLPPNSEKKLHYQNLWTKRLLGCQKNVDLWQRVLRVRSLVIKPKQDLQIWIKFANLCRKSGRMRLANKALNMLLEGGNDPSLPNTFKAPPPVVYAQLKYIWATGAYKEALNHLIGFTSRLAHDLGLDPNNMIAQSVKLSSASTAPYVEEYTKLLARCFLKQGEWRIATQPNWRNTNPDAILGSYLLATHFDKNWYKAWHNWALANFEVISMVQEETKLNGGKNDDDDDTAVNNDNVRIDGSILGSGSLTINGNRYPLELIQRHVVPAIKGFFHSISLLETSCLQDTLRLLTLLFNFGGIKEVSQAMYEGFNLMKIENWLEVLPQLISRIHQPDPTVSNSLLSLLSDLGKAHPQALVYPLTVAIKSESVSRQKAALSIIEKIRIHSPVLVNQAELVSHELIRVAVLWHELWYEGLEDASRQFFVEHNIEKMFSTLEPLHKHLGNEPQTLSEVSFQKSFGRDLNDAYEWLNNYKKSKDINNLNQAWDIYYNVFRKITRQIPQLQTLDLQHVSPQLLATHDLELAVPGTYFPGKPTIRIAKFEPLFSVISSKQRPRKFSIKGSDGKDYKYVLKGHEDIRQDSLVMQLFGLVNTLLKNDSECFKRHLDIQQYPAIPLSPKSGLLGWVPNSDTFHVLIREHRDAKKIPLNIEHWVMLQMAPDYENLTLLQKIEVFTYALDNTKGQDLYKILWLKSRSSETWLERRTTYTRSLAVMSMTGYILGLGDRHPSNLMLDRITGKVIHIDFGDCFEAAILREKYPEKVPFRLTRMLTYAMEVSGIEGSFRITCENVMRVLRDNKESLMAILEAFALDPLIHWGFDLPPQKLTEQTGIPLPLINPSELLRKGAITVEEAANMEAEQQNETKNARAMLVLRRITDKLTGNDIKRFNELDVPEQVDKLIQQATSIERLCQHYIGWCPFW

B1: Kog1 in the purified TORC1 helix (natural protein)
chain: MPEIYGPQPLKPLNTVMRHGFEEQYQSDQLLQSLANDFIFYFDDKRHKTNGNPIPEEDKQRDVNRYYQPITDWKIMKDRQKTVSAALLLCLNLGVDPPDVMKTHPCARVEAWVDPLNFQDSKKAIEQIGKNLQAQYETLSLRTRYKQSLDPCVEDVKRFCNSLRRTSKEDRILFHYNGHGVPKPTKSGEIWVFNRGYTQYIPVSLYDLQTWLGAPCIFVYDCNSAENILINFQKFVQKRIKDDEEGNHDVAAPSPTSAYQDCFQLASCTSDELLLMSPELPADLFSCCLTCPIEISIRIFLMQSPLKDSKYKIFFENSTSNQPFGDSKNSFKSKIPNVNIPGMLSDRRTPLGELNWIFTAITDTIAWTSLPRPLFKKLFRHDLMIAALFRNFLLAKRIMPWYNCHPVSDPELPDSITTHPMWKSWDLAMDEVLTKIVIDLKNAPPATALESQMILQQQETLQNGGSSKSNAQDTKAGSIQTQSRFAVANLSTMSLVNNPALQSRKSISLQSSQQQLQQQQQQQQQFTGFFEQNLTAFELWLKYASNVRHPPEQLPIVLQVLLSQVHRIRALVLLSRFLDLGPWAVYLSLSIGIFPYVLKLLQSPAPELKPILVFIWARIMSIDYKNTQSELIKEKGYMYFVTVLVPDWGVNGMSATNGSAMINSGNPLTMTASQNINGPSSRYYERQQGNRTSNLGHNNLPFYHSNDTTDEQKAMAVFVLASFVRNFPLGQKNCFSLELVNKLCFYIDNSEIPLLRQWCVILLGLLFADNPLNRFVCMNTGAVEILLKSLKDPVPEVRTASIFALKHFISGFQDAEVILRLQQEFEEQYQQLHSQLQHLQNQSHLQQQQSQQQQQHLEQQQMKIEKQIRHCQVMQNQLEVIDLRKLKRQEIGNLISILPLINDGSSLVRKELVVYFSHIVSRYSNFFIVVVFNDLLEEIKLLEKSDINTRNTSDKYSVSQGSIFYTVWKSLLILAEDPFLENKELSKQVIDYILLELSAHKELGGPFAVMEKFLLKRSSKAHQTGKFGFNSSQVQFVKSSLRSFSPNERVDNNAFKKEQQQHDPKISHPMRTSLAKLFQSLGFSESNSDSDTQSSNTSMKSHTSKKGPSGLYLLNGNNNIYPTAETPRFRKHTEPLQLPLNSSFLDYSREYFQEPQMKKQEADEPGSVEYNARLWRRNRNETIIQETQGEKKLSIYGNWSKKLISLNNKSQPKLMKFAQFEDQLITADDRSTITVFDWEKGKTLSKFSNGTPFGTKVTDLKLINEDDSALLLTGSSDGVIKIYRDYQDVDTFKIVSAWRGLTDMLLTPRSTGLLTEWLQIRGSLLTTGDVKVIRVWDAHTETVEVDIPAKTSSLITSLTADQLAGNIFVAGFADGSLRVYDRRLDPRDSMIRRWRAGNDKQGVWINNVHLQRGGYRELVSGATNGVVELWDIRSEDPVESFVDQNVTSQYGSQQKPTTMTCMQVHEHAPIIATGTKQIKIWTTSGDLLNSFKNSHNNGVTSTLAATGIPKSLSYSSTSDAFLSSMAFHPHRMMIAATNSHDSIVNIYKCEDERIDYF
B1: binds (cryo-EM structure); binds (Tor1).
